Reference: PMC4207522, “Interaction of Omega, Sigma, and Theta glutathione transferases with p38b mitogenactivated protein kinase from the fruit fly, Drosophila melanogaster” (Journal of Insect Science, 2014)

Key:
[1] = biological target: p38b mitogen-activated protein kinase (Drosophila melanogaster) (UniProt O61443)
[2] = biological target: p38b mitogen-activated protein kinase (Drosophila melanogaster) (UniProt O61443); remark: listed apart in the source
[3] = biological target: p38b mitogen-activated protein kinase (Drosophila melanogaster) (UniProt O61443); remark: listed apart in the source

Sequence of UniProt O61443 (O61443 whole entry): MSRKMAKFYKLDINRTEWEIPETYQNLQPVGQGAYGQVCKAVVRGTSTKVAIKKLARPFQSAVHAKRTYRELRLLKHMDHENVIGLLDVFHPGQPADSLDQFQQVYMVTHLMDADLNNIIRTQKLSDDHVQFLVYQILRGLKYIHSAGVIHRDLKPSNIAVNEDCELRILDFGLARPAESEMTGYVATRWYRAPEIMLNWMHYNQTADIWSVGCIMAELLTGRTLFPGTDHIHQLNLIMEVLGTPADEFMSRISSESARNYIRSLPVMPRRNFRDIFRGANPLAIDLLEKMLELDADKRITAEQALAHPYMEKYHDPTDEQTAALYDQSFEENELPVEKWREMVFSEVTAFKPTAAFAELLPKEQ

Substance | p38b kinase activity toward ATF2 with DmGSTT3b, fold against p38b with DmGSTT3a [1] | p38b kinase activity toward Jun with DmGSTT3b, fold against p38b with DmGSTT3a [1] | GST conjugating activity toward CDNB after 5 min with p38b at 1:1 molar ratio, percent decrease against no p38b [2] | p38b kinase activity toward ATF2 with the GST at 1:1 molar ratio (ADP Quest assay), fold against the reaction without GST [3] | p38b kinase activity toward Jun with the GST at 1:1 molar ratio (ADP Quest assay), fold against the reaction without GST [3] | GST conjugating activity toward CDNB after 5 min with p38b at 1:1 molar ratio, percent increase against no p38b [2] | GST thiol transferase activity toward HED after 5 min with p38b at 1:1 molar ratio, percent change (a decrease by the discussion) against no p38b [2]
DmGSTT3b (enzyme) | 3.1 fold | 6.9 fold | 84% | 3.4 fold | 7.4 fold |  | 
DmGSTO1 (enzyme) |  |  |  |  | 2 fold | 58% | 
DmGSTO3 (enzyme) |  |  |  |  | 1.6 fold |  | 14%

Other lines, results leading:

p38b kinase activity toward ATF2 with DmGSTT3b, fold against p38b with DmGSTT3a [1] | p38b kinase activity toward Jun with DmGSTT3b, fold against p38b with DmGSTT3a [1] | GST conjugating activity toward CDNB after 5 min with p38b at 1:1 molar ratio, percent decrease against no p38b [2] | p38b kinase activity toward ATF2 with the GST at 1:1 molar ratio (ADP Quest assay), fold against the reaction without GST [3] | p38b kinase activity toward Jun with the GST at 1:1 molar ratio (ADP Quest assay), fold against the reaction without GST [3] | GST conjugating activity toward CDNB after 5 min with p38b at 1:1 molar ratio, percent increase against no p38b [2] | GST thiol transferase activity toward HED after 5 min with p38b at 1:1 molar ratio, percent change (a decrease by the discussion) against no p38b [2] | Substance
 |  |  |  |  | 26% |  | DmGSTO2a (enzyme)
 |  |  | 3.1 fold | 4.3 fold | 14% |  | DmGSTT2 (enzyme)
